The target in this assay is fibrillin‐1 fragment start‐EGF4 (UniProt P35555 45-287). The experiment in a line: SPR. (In SPR one partner is held on a chip, and binding of the other changes the refractive index at the surface.)

The source of these data is article PMC11806408 (2025).

The term Kd denotes the constant that tells how readily two partners part at equilibrium. Read a low Kd as higher affinity.

Sequence of fibrillin‐1 fragment start‐EGF4 (P35555 45-287): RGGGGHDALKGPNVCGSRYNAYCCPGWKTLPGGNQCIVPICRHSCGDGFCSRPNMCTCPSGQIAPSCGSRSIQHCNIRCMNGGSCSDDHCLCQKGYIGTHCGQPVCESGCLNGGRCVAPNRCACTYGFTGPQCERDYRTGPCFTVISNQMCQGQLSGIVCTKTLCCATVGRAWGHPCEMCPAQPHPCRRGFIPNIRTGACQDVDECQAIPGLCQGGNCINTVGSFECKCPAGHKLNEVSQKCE

B1: processed BMP‐10 CPLX (tag‐free, HEK293) (complex)
chain 1: SPIMNLEQSPLEEDMSLFGDVFSEQDGVDFNTLLQSMKDEFLKTLNLSDIPTQDSAKVDPPEYMLELYNKFATDRTSMPSANIIRSFKNEDLFSQPVSFNGLRKYPLLFNVSIPHHEEVIMAELRLYTLVQRDRMIYDGVDRKITIFEVLESKGDNEGERNMLVLVSGEIYGTNSEWETFDVTDAIRRWQKSGSSTHQLEVHIESKHDEAEDASSGRLEIDTSAQNKHNPLLIVFSDDQSSDKERKEELNEMISHEQLPELDNLGLDSFSSGPGEEALLQMRSNIIYDSTARIRR
chain 2: NAKGNYCKRTPLYIDFKEIGWDSWIIAPPGYEAYECRGVCNYPLAEHLTPTKHAIIQALVHLKNSQKASKACCVPTKLEPISILYLDKGVVTYKFKYEGMAVSECGCR
modifications: N‐glycosylation
As for B1, the Kd worked out at 0.0144 µM.
